Test results as given in publication PMC4831024.
pKd: −log10 of the molar value.

Experiments:
[1] = target: Ku (Homo sapiens) (UniProt P12956); conditions: cited from earlier work
[2] = target: GFP–WRN ΔX (deleted XLF-like motif) (human) (UniProt Q14191); test: co-IP; GFP-tagged proteins recovered on GFP-TRAP beads from transfected HEK293T extract (25 mM Tris-HCl pH 7.5, 150 mM NaCl, 10% glycerol, 0.5% Triton X-100, 1 mM DTT), 1 h at 4 °C; immunoblot for GFP, Ku80 and DNA–PKcs; Ku quantified by ImageJ relative to wild-type WRN
GFP–WRN ΔX (deleted XLF-like motif) (human), sequence (Q14191 whole entry, stated change not applied): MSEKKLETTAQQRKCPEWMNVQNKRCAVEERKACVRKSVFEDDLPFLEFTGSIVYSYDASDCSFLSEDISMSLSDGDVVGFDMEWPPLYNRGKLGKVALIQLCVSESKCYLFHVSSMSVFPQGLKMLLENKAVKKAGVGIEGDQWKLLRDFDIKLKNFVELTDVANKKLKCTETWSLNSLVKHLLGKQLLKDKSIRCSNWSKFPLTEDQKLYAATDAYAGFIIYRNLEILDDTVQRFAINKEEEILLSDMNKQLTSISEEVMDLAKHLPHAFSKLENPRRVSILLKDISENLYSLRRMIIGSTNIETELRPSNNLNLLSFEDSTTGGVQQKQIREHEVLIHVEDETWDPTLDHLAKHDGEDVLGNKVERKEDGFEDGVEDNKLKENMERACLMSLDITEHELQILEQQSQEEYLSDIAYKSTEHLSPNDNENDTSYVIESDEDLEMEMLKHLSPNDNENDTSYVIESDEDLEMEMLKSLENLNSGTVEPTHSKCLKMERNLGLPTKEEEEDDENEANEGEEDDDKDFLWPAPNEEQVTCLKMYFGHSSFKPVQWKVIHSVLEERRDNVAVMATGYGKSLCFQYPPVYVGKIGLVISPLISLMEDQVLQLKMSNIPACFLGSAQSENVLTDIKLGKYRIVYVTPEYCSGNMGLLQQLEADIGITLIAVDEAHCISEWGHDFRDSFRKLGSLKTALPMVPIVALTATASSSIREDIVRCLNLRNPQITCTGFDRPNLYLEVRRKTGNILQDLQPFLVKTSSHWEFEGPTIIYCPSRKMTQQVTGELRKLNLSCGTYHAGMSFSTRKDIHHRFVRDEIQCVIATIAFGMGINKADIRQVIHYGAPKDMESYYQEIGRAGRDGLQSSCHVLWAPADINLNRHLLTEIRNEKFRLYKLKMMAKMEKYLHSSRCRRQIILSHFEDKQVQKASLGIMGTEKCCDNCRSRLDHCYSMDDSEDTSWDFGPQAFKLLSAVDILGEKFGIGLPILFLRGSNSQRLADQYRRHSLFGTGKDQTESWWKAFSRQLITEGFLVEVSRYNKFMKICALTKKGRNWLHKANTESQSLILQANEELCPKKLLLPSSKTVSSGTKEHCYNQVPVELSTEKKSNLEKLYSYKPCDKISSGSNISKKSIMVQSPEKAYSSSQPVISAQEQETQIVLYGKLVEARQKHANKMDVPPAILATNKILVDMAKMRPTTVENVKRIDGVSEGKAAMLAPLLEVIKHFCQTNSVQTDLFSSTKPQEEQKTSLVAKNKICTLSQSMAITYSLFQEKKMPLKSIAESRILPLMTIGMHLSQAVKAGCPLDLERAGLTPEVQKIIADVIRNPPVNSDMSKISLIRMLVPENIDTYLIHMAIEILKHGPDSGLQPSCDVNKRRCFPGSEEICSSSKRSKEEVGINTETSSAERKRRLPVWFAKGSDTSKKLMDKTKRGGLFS

Ku (Homo sapiens), sequence (P12956 2-609, chain 1 of 2): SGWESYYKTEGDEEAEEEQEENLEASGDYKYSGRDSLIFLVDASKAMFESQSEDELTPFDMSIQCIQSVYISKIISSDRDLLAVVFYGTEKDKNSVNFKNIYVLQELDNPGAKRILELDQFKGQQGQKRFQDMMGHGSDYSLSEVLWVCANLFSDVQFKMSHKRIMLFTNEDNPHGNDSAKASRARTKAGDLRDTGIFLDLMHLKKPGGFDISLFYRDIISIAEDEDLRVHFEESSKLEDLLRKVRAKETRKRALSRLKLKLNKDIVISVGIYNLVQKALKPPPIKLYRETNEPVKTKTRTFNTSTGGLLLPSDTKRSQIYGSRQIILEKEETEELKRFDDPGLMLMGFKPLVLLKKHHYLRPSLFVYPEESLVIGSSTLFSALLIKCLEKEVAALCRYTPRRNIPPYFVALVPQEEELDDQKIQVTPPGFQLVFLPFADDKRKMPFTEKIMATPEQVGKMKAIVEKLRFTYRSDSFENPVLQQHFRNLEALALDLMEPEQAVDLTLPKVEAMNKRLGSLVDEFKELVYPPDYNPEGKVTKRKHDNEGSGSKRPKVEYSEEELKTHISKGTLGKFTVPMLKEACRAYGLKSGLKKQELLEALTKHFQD
Ku (Homo sapiens), sequence (P13010 2-732, chain 2 of 2, further chain): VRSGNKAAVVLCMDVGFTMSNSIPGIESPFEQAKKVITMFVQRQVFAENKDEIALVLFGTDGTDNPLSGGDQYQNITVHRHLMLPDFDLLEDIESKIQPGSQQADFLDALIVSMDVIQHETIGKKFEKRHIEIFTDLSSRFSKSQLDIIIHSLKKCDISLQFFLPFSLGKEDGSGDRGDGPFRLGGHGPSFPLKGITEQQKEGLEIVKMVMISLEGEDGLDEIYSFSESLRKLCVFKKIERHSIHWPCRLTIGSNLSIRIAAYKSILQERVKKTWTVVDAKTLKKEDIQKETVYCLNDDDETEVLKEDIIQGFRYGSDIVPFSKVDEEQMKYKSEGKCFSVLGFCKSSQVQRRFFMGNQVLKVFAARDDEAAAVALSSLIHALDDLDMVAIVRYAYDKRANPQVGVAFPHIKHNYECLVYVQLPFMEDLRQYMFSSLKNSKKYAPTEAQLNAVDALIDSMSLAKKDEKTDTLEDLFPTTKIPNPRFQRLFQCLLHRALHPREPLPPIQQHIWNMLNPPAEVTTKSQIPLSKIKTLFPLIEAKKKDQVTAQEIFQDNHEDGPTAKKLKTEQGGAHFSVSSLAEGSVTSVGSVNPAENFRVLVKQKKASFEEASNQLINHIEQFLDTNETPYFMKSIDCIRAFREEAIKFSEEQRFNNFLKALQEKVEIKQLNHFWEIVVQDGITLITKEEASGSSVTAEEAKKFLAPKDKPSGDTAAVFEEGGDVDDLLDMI
Ku80, endogenous, sequence (P13010 whole entry): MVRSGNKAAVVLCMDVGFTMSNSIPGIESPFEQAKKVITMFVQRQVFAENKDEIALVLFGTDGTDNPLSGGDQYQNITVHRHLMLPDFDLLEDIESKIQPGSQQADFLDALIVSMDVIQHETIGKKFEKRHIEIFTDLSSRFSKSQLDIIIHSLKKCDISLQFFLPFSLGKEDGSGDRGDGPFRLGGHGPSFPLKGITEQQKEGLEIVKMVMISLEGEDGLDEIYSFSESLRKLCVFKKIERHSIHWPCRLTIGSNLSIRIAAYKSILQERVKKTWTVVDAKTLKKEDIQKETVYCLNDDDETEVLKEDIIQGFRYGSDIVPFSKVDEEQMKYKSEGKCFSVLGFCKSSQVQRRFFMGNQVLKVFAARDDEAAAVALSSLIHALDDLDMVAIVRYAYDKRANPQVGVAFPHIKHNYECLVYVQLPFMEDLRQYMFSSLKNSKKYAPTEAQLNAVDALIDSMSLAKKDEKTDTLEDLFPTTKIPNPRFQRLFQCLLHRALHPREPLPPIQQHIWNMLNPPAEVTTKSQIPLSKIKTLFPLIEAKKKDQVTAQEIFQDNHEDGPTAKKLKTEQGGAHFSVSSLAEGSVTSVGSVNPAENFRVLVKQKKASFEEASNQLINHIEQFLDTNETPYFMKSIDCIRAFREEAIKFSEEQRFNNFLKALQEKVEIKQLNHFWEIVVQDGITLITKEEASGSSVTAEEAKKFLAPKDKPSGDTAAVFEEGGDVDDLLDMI

Q: With APLF KBM (from UniProt Q8IW19) as the substance, how does the pKd [1] read?
A: The pKd was 6.22.

Q: For “Ku80, endogenous (from UniProt P13010 1-732) (natural protein)”, which percent reduction of Ku co-precipitated, relative to wild-type GFP-WRN [2] is on record?
A: Its percent reduction of Ku co-precipitated, relative to wild-type GFP-WRN is 30%.
